Where no end group is shown, it is not given here. [ ]: non-standard residue; d: D form. pS = N[C@@H](COP(=O)(O)O)C(=O)O
T1: GST-14-3-3γ (UniProt P61981 1-247)
T1 construct: 14-3-3 gamma; also called purified GST-14-3-3γ; Sepharose bead-conjugated GST-14-3-3γ; source: bacteria (100 µM IPTG, 4 hours at 37°C), purified following the manufacturer's instruction (GE Healthcare)
T1 sequence (looked up): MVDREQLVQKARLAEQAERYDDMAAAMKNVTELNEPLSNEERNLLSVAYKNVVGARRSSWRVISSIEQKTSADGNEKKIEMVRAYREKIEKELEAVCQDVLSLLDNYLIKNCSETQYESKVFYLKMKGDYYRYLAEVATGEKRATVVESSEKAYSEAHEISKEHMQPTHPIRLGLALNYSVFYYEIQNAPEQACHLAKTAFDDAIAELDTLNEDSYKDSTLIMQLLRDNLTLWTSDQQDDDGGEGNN


What was measured:
Myc-14-3-3γ wild type = Myc-14-3-3γ wild type (UniProt P61981); assay: co-IP; HEK-293T cells co-transfected with FLAG-LRRK2 (wild type or mutant) and Myc-14-3-3; immunoprecipitation with anti-Myc antibody overnight, washes with modified RIPA buffer (300 mM NaCl); blot with anti-FLAG; Figure 5C quantified with LI-COR Odyssey
GST-14-3-3γ = target: T1, GST-14-3-3γ; assay: pull-down; competition: synthetic peptide at various concentrations added to brain lysate of FLAG-LRRK2 Wt transgenic mice for 1 hour, then GST-14-3-3γ beads for 4 hours; read-out is the FLAG-LRRK2 pulled down; settings: both partners purified

Row | reduction of co-immunoprecipitation with Myc-14-3-3γ compared to wild type LRRK2 (Myc-14-3-3γ wild type) [%] | binding result (GST-14-3-3γ) | Molecule
1 | < 20 | – | FLAG-LRRK2 G2019S mutant, Q5S006 1-2527
2 | 90 | – | FLAG-LRRK2 S935A mutant (from UniProt Q5S006 1-2527) (natural protein)
3 | – | binds | Ac-QRHSN[pS]LGPC (stretch of LRRK2 around S935; C-terminal cysteine printed only in the methods; The results print the peptide without the last C (QRHSNpSLGP); the methods print QRHSNpSLGPC; also called pS935-containing peptide; phosphorylated peptide (pS935); source: synthetic peptide (The Rockefeller University Proteomics Resource Center, HPLC purified)) [phospho-peptide QRHSNpSLGPC (containing pS935 of LRRK2)]

— PMC3046972, “Phosphorylation-Dependent 14-3-3 Binding to LRRK2 Is Impaired by Common Mutations of Familial Parkinson's Disease” (PLoS ONE, 2011)
